Data: article PMC4014986
Read-outs that look alike come from different tables or passages of the source.

Experiments:
[1] = target: Actin filaments (F-actin) from rabbit skeletal muscle (rabbit) (UniProt P68135)
[2] = target: Actin filaments (F-actin) from rabbit skeletal muscle (rabbit) (UniProt P68135); remark: listed apart in the source
[3] = target: Actin filaments (F-actin) from rabbit skeletal muscle (rabbit) (UniProt P68135); remark: listed apart in the source

Myosin 5c subfragment 1 (Myo5c-S1, 1-785 amino acids), sequence (Q9NQX4 1-785): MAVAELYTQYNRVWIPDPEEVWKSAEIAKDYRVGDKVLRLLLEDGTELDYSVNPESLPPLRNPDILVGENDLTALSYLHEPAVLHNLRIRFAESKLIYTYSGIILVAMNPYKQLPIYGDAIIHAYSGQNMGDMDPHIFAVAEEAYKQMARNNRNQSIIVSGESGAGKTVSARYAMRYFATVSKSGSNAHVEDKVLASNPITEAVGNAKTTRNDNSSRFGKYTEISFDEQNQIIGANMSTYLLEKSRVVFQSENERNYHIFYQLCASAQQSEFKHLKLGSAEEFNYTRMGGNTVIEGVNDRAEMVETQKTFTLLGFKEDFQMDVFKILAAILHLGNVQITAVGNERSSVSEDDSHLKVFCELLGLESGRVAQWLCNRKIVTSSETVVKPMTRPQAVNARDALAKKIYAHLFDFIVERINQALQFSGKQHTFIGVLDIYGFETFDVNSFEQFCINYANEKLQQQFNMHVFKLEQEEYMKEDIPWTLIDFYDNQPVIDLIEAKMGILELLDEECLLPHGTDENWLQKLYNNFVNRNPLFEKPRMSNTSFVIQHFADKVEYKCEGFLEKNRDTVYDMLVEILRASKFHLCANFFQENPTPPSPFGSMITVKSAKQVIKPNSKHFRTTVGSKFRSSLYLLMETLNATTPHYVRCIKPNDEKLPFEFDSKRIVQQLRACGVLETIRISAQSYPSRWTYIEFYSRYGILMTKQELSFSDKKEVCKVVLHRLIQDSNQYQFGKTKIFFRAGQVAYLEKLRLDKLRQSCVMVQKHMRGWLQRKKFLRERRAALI

- K (ATPase) of the steady-state actin-activated ATPase (NADH-coupled assay) [1]: 26 µM
- half-maximum value (Kact) of the phosphate dissociation rate against F-actin concentration (MDCC-PBP, double-mixing stopped flow) [2]: 14.6 µM
- K (ATPase) of the steady-state actin-activated ATPase (NADH-coupled assay) [3]: 35 µM
Substance: Myosin 5c subfragment 1 (Myo5c-S1, 1-785 amino acids) (from UniProt Q9NQX4 1-785) (domain or fragment)
